Residue numbers refer to the chain shown, from its start.
Legend:
[1] = target: VEGFR2 fusion protein (extracellular domain of hVEGFR2 and intracellular domain of hEpoR) on Ba/F3 cells (human) (UniProt P35968); assay: cell-based or functional assay
[2] = target: T1, human PCSK9 (human, UniProt Q8NBP7 31-692); assay: cell-based or functional assay
[3] = target: T1, human PCSK9; assay: SPR (Biacore), 10Fn3 protein or Fc fusion captured by anti-His or anti-human antibody, target in flow, 25 C, 1:1 fit
Description: (§1) The binding properties of Fc-¹⁰Fn3 fusion proteins and non-Fc ¹⁰Fn3 proteins were characterized by Surface Plasmon Resonance (SPR). Anti-human or anti-Histidine antibody was immobilized on a Biacore chip, and ¹⁰ Fn3 proteins and Fc-¹⁰Fn3 fusions were captured on the chip surface. Varying concentrations of target were placed into the flow solution using MgCl2 (3 M) for chip regeneration between cycles. Kinetic determinations were performed at 25° C. Evaluation of the kinetic parameters was performed using the 1:1 binding algorithm on the Biacore Evaluation software.

[4] = target: T1, human PCSK9; assay: PCSK9:EGFA FRET competition assay, 5 nM PCSK9; competitor EGFA peptide
From the text: (§2) Two fluorescence resonance energy transfer (FRET) based assays were used to determine the competitive binding potency of PRD460 and other adnectins to hPCSK9. The PCSK9:EGFA FRET assay measures the binding of PCSK9 to the LDLR, using a soluble epidermal growth factor precursor homology domain-A (EGFA) peptide and recombinant human PCSK9.

[5] = target: T1, human PCSK9; assay: PCSK9:ATI-972 FRET competition assay, 5 nM human PCSK9; competitor biotinylated ATI-972
From the text: as §2

[6] = target: T1, human PCSK9; assay: SPR (Biacore), ATI-1081 captured by anti-His antibody, hPCSK9 in flow, 25 C, 1:1 fit
Description: The binding characteristics were characterized by Surface Plasmon Resonance (SPR). […] Varying concentrations of hPCSK9 were placed into the flow solution using MgCl2 (3 M) for chip regeneration between cycles. […] Duplicate experiments for PRD460 were performed on different days. Kinetic determinations were performed at 25° C. Evaluation of the kinetic parameters was performed using the 1:1 Binding algorithm on the Biacore Evaluation software.

[7] = target: T1, human PCSK9; assay: PCSK9:ATI-972 FRET assay, 5 nM human PCSK9; displaced competitor: biotinylated ATI-972
[8] = target: VEGFR2 (Homo sapiens (Human), UniProt P35968 20-764); assay: SPR (Biacore), 10Fn3 protein or Fc fusion captured by anti-His or anti-human antibody, target in flow, 25 C, 1:1 fit
Description: as §1

In the case of CT322 (designed binder), the IC50 (nM), Ba/F3 proliferation assay [1] is reported as 7.96 nM and the Relative Potency, Ba/F3 proliferation assay [1] is reported as 1.

B1: 1784F03 (designed binder, from a related filing)
chain: MGVSDVPRDLEVVAATPTSLLISWRPPIHAYGYYRITYGETGGNSPVQEFTVPIVEGTATISGLKPGVDYTITVYAVEYTFKHSGYYHRPISINYRTEIDKPSQHHHHHH
B1 showed an IC50, HepG2 depletion inhibition [2] of 13.2 nM, a Kd [3] of 34.5 nM and a koff [3] of 0.000396 s⁻¹. For the same molecule, the kon [3] was 11500 M⁻¹ s⁻¹.

B2: 1813E02 (designed binder, from a related filing)
chain: B1 chain with R25S, I28A, H29N, A30G, I54V, V55G, E56R, F81Y, H83G
B2 was tested, and the IC50, HepG2 depletion inhibition [2] was 10.6 nM, the Kd [3] was 22.2 nM and the koff [3] was 0.000388 s⁻¹. For the same molecule, the kon [3] was 17500 M⁻¹ s⁻¹.

B3: ATI-1081 (designed binder)
chain: MGVSDVPRDLEVVAATPTSLLISWVPPSDDYGYYRITYGETGGNSPVQEFTVPIGKGTATISGLKPGVDYTITVYAVEFPWPHAGYYHRPISINYRTEIDKPSQHHHHHH
notes: No Fc
With B3 the “EC50 of inhibition of PCSK9-induced LDLR depletion from HepG2 cell surface (FACS)” value [2] was 9 nM, the EC50 [4] was 3.7 nM and the EC50 [5] was 2.8 nM. It also gave a Kd [6] of 6.7 nM, a koff [6] of 0.000245 s⁻¹ and a kon [6] of 36500 M⁻¹ s⁻¹. It also gave a Kd [3] of 6.7 nM, a koff [3] of 0.000245 s⁻¹ and a kon [3] of 36500 M⁻¹ s⁻¹.

B4: ATI-1174 (designed binder)
chain: MGVSDVPRDLEVVAATPTSLLISWVPPSDDYGYYRITYGETGGNSPVQEFTVPIGKGTATISGLKPGVDYTITVYAVEFPWPHAGYYHRPISINYRTEIEKPCQ
modifications: pegylated (site and PEG size not stated)
notes: also called pegylated anti-PCSK9 Adnectin
For B4, the “EC50 of inhibition of PCSK9-AF647 intracellular fluorescence in HepG2 cells” value [2] was 10 nM, the “EC50 of inhibition of PCSK9-induced LDLR depletion from HepG2 cell surface (FACS)” value [2] was 8 nM and the EC50 [4] was 1.9 nM. For the same molecule, the “IC50 (read off the curve)” value [7] was ~0.9 nM.

B5: ATI-1114 (designed binder)
chain: MGVSDVPRDLEVVAATPTSLLISWVPPSDDYGYYRITYGETGGNSPVQEFTVPIGKGTATISGLKPGVDYTITVYAVEFPWPHAGYYHRPISINYRTGSGCHHHHHH
modifications: pegylated (site and PEG size not stated)
B5 gave an EC50 [5] of 0.8 nM.

B6: C7FL (designed binder)
chain: VSDVPRDLEVVAATPTSLLISWRHPHFPTRYYRITYGETGGNSPVQEFTVPLQPPTATISGLKPGVDYTITVYAVTDGRNGRLLSIPISINYRT
notes: No Fc; anti-VEGFR2 10Fn3; not shown: the N-terminal extension, C-terminal tail and His tag of the non-Fc C7FL protein, none of which is stated for it
B6 showed a Kd [8] of 11.5 nM, a koff [8] of 0.000236 s⁻¹ and a kon [8] of 20500 M⁻¹ s⁻¹.

— patent US20210122805A1 (Bristol-Myers Squibb, published 2021)
